Assay results reported in US20090181035A1 (Genentech, published 2009).

Columns and labels:
[1] = biological target: T1, PlxD1-Fc (human PlexinD1 ECD Met1 to Ala1271 fused to the Fc portion of human IgG1) (human, UniProt Q9Y4D7 47-1271); experiment: SPR (Biacore 3000, 25 C); PlxD1-Fc amine-coupled on CM5 chip, Sema3E^SD-His as analyte; one-to-one model; SPR, 25 C; PlxD1-Fc on the chip, His-tagged Sema3E^SD as analyte
T1 construct: range 1-1271; also called PlexinD1 immunoadhesin; soluble PlexinD1; not shown: Fc portion of human IgG1
T1 sequence (looked up): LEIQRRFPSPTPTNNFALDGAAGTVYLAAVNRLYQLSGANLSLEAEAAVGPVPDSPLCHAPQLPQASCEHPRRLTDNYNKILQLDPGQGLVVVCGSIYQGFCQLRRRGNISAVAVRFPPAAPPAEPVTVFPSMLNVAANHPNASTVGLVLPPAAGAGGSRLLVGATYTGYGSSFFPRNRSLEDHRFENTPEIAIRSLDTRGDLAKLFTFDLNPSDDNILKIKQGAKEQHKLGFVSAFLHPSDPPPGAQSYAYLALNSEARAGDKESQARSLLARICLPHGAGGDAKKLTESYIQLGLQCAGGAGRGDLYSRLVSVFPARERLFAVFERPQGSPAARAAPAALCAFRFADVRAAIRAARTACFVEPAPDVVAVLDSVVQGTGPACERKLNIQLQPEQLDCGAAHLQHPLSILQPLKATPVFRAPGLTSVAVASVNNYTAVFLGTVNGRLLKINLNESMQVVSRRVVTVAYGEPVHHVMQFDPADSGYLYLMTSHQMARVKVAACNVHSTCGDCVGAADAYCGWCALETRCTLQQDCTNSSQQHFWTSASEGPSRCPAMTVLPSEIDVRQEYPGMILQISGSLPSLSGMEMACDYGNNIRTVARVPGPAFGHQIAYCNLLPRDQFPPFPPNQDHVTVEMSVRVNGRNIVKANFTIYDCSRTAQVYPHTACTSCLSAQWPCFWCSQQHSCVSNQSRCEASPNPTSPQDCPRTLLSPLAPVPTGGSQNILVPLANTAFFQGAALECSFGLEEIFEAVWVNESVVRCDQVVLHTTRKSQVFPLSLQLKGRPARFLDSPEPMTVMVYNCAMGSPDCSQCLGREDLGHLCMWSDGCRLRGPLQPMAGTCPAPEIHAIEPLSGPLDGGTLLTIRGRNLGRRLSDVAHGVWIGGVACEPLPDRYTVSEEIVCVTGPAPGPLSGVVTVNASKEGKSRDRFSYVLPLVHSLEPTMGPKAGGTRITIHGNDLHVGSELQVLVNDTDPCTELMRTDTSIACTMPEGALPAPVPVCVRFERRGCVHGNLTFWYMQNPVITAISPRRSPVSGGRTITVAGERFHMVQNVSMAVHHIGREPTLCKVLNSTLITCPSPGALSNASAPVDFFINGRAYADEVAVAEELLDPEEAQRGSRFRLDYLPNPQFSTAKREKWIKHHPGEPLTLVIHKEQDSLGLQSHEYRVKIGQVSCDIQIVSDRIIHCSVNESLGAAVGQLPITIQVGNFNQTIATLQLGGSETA
Description: Binding experiments were performed by SPR measurements on a Biacore 3000 instrument (Biacore Inc.) at 25° C. PlxD1-Fc constructed as described in Example 1 was immobilized at high surface density (˜10,000 RU) on an activated CM5 chip using standard amine coupling procedures as described by the manufacturer. PlxD1-Fc was injected at a concentration of 10 μg/ml in 20 mM sodium acetate, pH 4.5 and at a flow rate of 5 μl/min until desired surface densities, measured in response units (RU), were reached. Unreacted groups were blocked by injecting 1 M ethanolamine. To perform binding assays, different concentrations of Sema3E^SD-His were injected in 10 mM HEPES pH 7.4, 150 mM NaCl, 0.005% v/v Surfactant P20, at a flow rate of 5 μl/min. Blank surfaces were used for background corrections. Injections of 10 mM glycine, pH 3.0 at 100 μl/min for 1 min were used to regenerate surfaces between two binding experiments. Kinetic analysis was performed with binding sensorgrams of different analyte concentrations using the BIAevaluation Software (Biacore Inc.). An one-to-one binding model was used to fit the experimental data for association and dissociation reactions. Dissociation constants were calculated from the on and off rates. […] Radioligand cell binding assays were performed and the dissociation constant for Sema3E^SD-Fc binding to HUVECs was calculated to 4 nM.

[2] = biological target: T2, human PlexinD1 expressed on human umbilical vein endothelial cells (HUVECs) (human, UniProt Q9Y4D7 47-1925); experiment: radioligand cell binding assay on HUVECs; radioligand binding on HUVECs (endogenous human PlexinD1); Fc fusion, not His
T2 construct: whole, on cells; Endogenous receptor on primary cells; also called native PlexinD1

[3] = biological target: T3, murine PlexinD1 expressed on mouse microvascular endothelial (MS1) cells (mouse, UniProt Q3UH93 49-1925); experiment: FACS on MS1 cells
T3 construct: whole, on cells; Endogenous receptor on a cell line

B1: Sema3E^SD-His (human Semaphorin 3E Ala26 to Arg560 of SEQ ID NO: 1 with an N-terminal Histidine tag) (ligand, not shown: small tags and cut ends)
chain: ADTTHPRLRLSHKELLNLNRTSIFHSPFGFLDLHTMLLDEYQERLFVGGRDLVYSLSLERISDGYKEIHWPSTALKMEECIMKGKDAGECANYVRVLHHYNRTHLLTCGTGAFDPVCAFIRVGYHLEDPLFHLESPRSERGRGRCPFDPSSSFISTLIGSELFAGLYSDYWSRDAAIFRSMGRLAHIRTEHDDERLLKEPKFVGSYMIPDNEDRDDNKVYFFFTEKALEAENNAHAIYTRVGRLCVNDVGGQRILVNKWSTFLKARLVCSVPGMNGIDTYFDELEDVFLLPTRDHKNPVIFGLFNTTSNIFRGHAICVYHMSSIRAAFNGPYAHKEGPEYHWSVYEGKVPYPRPGSCASKVNGGRYGTTKDYPDDAIRFARSHPLMYQAIKPAHKKPILVKTDGKYNLKQIAVDRVEAEDGQYDVLFIGTDNGIVLKVITIYNQEMESMEEVILEELQIFKDPVPIISMEISSKRQQLYIGSASAVAQVRFHHCDMYGSACADCCLARDPYCAWDGISCSRYYPTGTHAKRRFRR
notes: Produced by transient transfection of CHO cells; also called His-tagged Sema3E^SD; soluble Sema3E sema domain construct
In the case of B1, the Kd [1] is reported as 24 nM.

B2: Sema3E^SD-Fc (human Semaphorin 3E Met1 to Ala554 of SEQ ID NO: 1 with the Fc portion of human IgG1 as C-terminal fusion partner) (Fc fusion)
chain: ADTTHPRLRLSHKELLNLNRTSIFHSPFGFLDLHTMLLDEYQERLFVGGRDLVYSLSLERISDGYKEIHWPSTALKMEECIMKGKDAGECANYVRVLHHYNRTHLLTCGTGAFDPVCAFIRVGYHLEDPLFHLESPRSERGRGRCPFDPSSSFISTLIGSELFAGLYSDYWSRDAAIFRSMGRLAHIRTEHDDERLLKEPKFVGSYMIPDNEDRDDNKVYFFFTEKALEAENNAHAIYTRVGRLCVNDVGGQRILVNKWSTFLKARLVCSVPGMNGIDTYFDELEDVFLLPTRDHKNPVIFGLFNTTSNIFRGHAICVYHMSSIRAAFNGPYAHKEGPEYHWSVYEGKVPYPRPGSCASKVNGGRYGTTKDYPDDAIRFARSHPLMYQAIKPAHKKPILVKTDGKYNLKQIAVDRVEAEDGQYDVLFIGTDNGIVLKVITIYNQEMESMEEVILEELQIFKDPVPIISMEISSKRQQLYIGSASAVAQVRFHHCDMYGSACADCCLARDPYCAWDGISCSRYYPTGTHA
notes: The construct as cloned starts at Met1; also called Sema3E^SD-Fc immunoadhesin; not shown: Fc portion of human IgG1
For B2, the Kd [2] was 4 nM and the binding result [3] was “binds”.
